Assay results from US20210070886.

Tests used:
[1] = target: fluorescein-modified BSA encapsulated in octahedra-shaped DNA origami (OCs) (UniProt P02769)
[2] = target: fluorescein labeled bovine serum albumin (BSA), free in solution (UniProt P02769)
Sequence of fluorescein labeled bovine serum albumin (BSA), free in solution (P02769 25-607): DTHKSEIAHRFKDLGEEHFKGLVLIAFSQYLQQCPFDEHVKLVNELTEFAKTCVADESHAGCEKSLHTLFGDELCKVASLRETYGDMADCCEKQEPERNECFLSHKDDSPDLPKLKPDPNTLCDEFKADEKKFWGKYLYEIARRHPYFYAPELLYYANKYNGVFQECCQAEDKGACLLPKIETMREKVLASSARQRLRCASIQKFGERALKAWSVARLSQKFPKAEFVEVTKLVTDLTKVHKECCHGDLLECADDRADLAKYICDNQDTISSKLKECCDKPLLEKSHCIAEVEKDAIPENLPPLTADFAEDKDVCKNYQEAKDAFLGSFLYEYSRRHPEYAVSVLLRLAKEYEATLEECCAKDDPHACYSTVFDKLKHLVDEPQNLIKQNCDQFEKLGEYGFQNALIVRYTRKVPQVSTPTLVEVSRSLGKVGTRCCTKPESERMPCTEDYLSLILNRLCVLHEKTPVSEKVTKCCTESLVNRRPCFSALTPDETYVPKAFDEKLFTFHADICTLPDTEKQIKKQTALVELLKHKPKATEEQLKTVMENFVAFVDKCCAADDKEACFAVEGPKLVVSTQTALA

Sequence of trypsin (P00760 24-246): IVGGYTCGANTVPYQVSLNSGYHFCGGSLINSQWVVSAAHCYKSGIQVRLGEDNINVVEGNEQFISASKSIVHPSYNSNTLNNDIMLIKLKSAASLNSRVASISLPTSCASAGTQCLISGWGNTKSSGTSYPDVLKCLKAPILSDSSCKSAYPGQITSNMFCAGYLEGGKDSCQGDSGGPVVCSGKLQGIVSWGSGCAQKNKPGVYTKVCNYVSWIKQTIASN
Sequence of fluorescein-modified BSA encapsulated in octahedra-shaped DNA origami (OCs) (P02769 25-607): as the sequence (P02769 25-607) above

trypsin
fluorescence enhancement on tryptic digestion, BSA encapsulated inside PE2-coated OCs [1]: further reduced to ˜14% by PE2 coating on the OC surface
fluorescence enhancement on tryptic digestion, BSA encapsulated inside bare OCs [1]: reduced to ˜40% by protein encapsulation inside the OCs
fluorescence enhancement of fluorescein labeled BSA in solution on tryptic digestion [2]: an 85% increase in the fluorescence intensity
